Test results from PMC4431734, “Characterization of a Single-Stranded DNA-Binding-Like Protein from Nanoarchaeum equitans—A Nucleic Acid Binding Protein with Broad Substrate Specificity”.

What was measured:
NeqSSB-like protein [1] = molecular target: T1, NeqSSB-like protein (Nanoarchaeum equitans Kin4-M, UniProt Q74MP9 2-243); test: EMSA; 10 pmol DNA; smeary shift; EMSA: 20 mM Tris-HCl pH 7.5, 100 mM NaCl, 1 mM EDTA, 25 C, 10 min; fluorescence: 20 mM Tris-HCl pH 7.5, 1 mM EDTA, 2/100/500 mM NaCl, 25 C; SPR: 10 mM Hepes pH; settings: protein: recombinant; tags: N-terminal His tag with TEV site, removed by TEV; label: 5' fluorescein
T1 sequence: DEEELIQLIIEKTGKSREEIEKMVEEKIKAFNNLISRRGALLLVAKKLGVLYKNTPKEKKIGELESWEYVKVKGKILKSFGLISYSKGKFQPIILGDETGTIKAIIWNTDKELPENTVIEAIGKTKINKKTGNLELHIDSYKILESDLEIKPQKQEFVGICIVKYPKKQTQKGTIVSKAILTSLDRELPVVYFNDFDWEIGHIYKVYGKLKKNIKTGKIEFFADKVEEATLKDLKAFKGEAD

EcoSSB = EcoSSB (Escherichia coli, UniProt P0AGE0 1-178); test: SPR; kon 3.45e4 1/Ms; koff 1.85e-4 1/s; EMSA: 20 mM Tris-HCl pH 7.5, 100 mM NaCl, 1 mM EDTA, 25 C, 10 min; fluorescence: 20 mM Tris-HCl pH 7.5, 1 mM EDTA, 2/100/500 mM NaCl, 25 C; SPR: 10 mM Hepes pH; settings: protein: recombinant; chain copies: 4; label: 3' biotin
EcoSSB, sequence (P0AGE0 whole entry): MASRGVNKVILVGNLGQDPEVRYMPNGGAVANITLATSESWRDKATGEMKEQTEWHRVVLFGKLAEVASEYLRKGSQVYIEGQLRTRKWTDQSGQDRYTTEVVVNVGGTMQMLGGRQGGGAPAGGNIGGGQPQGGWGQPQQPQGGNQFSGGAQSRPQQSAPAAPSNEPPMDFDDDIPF

NeqSSB-like protein [2] = molecular target: T1, NeqSSB-like protein; test: SPR; kon 7.91e3 1/Ms; koff 2.39e-2 1/s; EMSA: 20 mM Tris-HCl pH 7.5, 100 mM NaCl, 1 mM EDTA, 25 C, 10 min; fluorescence: 20 mM Tris-HCl pH 7.5, 1 mM EDTA, 2/100/500 mM NaCl, 25 C; SPR: 10 mM Hepes pH; settings: protein: recombinant; tags: N-terminal His tag with TEV site, removed by TEV; label: 3' biotin
NeqSSB-like protein [3] = molecular target: T1, NeqSSB-like protein; test: SPR; kon 8.30e3 1/Ms; koff 4.89e-2 1/s; EMSA: 20 mM Tris-HCl pH 7.5, 100 mM NaCl, 1 mM EDTA, 25 C, 10 min; fluorescence: 20 mM Tris-HCl pH 7.5, 1 mM EDTA, 2/100/500 mM NaCl, 25 C; SPR: 10 mM Hepes pH; settings: protein: recombinant; tags: N-terminal His tag with TEV site, removed by TEV; label: 3' biotin on strand 1; blunt
NeqSSB-like protein [4] = molecular target: T1, NeqSSB-like protein; test: EMSA; 10 pmol DNA; EMSA: 20 mM Tris-HCl pH 7.5, 100 mM NaCl, 1 mM EDTA, 25 C, 10 min; fluorescence: 20 mM Tris-HCl pH 7.5, 1 mM EDTA, 2/100/500 mM NaCl, 25 C; SPR: 10 mM Hepes pH; settings: protein: recombinant; tags: N-terminal His tag with TEV site, removed by TEV; label: 5' fluorescein
NeqSSB-like protein [5] = molecular target: T1, NeqSSB-like protein; test: competition EMSA; mixed with 100 bp dsDNA; ssDNA bound preferentially at low protein; EMSA: 20 mM Tris-HCl pH 7.5, 100 mM NaCl, 1 mM EDTA, 25 C, 10 min; fluorescence: 20 mM Tris-HCl pH 7.5, 1 mM EDTA, 2/100/500 mM NaCl, 25 C; SPR: 10 mM Hepes pH; settings: protein: recombinant; tags: N-terminal His tag with TEV site, removed by TEV; label: 5' fluorescein

B1: (dT)35 (ssDNA)
DNA: TTTTTTTTTTTTTTTTTTTTTTTTTTTTTTTTTTT
binding result (NeqSSB-like protein [1]): binds

B2: ssDNA 60-mer (ssDNA)
DNA: AATTCTGGGTGTGTGGGTGTGTGGGTGTGTGGGTGTGGTCAAGTTGACTACGTATACATC
Kd (EcoSSB): 5.36 nM | Kd (NeqSSB-like protein [2]): 2660 nM

B3: dsDNA 60-mer (dsDNA)
DNA 1: AATTCTGGGTGTGTGGGTGTGTGGGTGTGTGGGTGTGGTCAAGTTGACTACGTATACATC
DNA 2: GATGTATACGTAGTCAACTTGACCACACCCACACACCCACACACCCACACACCCAGAATT
Kd (NeqSSB-like protein [3]): 5260 nM

B4: (dT)120 (ssDNA)
DNA: TTTTTTTTTTTTTTTTTTTTTTTTTTTTTTTTTTTTTTTTTTTTTTTTTTTTTTTTTTTTTTTTTTTTTTTTTTTTTTTTTTTTTTTTTTTTTTTTTTTTTTTTTTTTTTTTTTTTTTTT
binding result (NeqSSB-like protein [4]): binds

B5: (dT)76 (ssDNA)
DNA: TTTTTTTTTTTTTTTTTTTTTTTTTTTTTTTTTTTTTTTTTTTTTTTTTTTTTTTTTTTTTTTTTTTTTTTTTTTT
binding result (NeqSSB-like protein [5]): binds
